From paper PMC7552008 come the findings set out here.

As a reminder, the IC50 is the midpoint of a concentration-inhibition curve. The term Kd denotes the free concentration of one partner at which half of the binding sites on the other are occupied at equilibrium, for simple one-to-one binding.

Series [1] concerns the target T1, NS1 RBD H7N1 (Influenza A virus (avian H7N1; allele B), UniProt Q1PST0 1-73). The series is described as follows: competition EMSA; EC50app vs labelled AWFC01. Particulars: protein: recombinant, tags: N-His thrombin-cleaved (vector residues remain), chain copies: 2. For orientation: A gel shift assay detects complexes by their altered migration in electrophoresis.

In another series the target is NS1 RBD H7N9 (Influenza A virus (H7N9), UniProt S4VCY8 1-73). In words: EMSA. The settings on record: protein: recombinant; tags: N-His thrombin-cleaved; chain copies: 2; label: 5'-32P.
For another series, the target named is NS1 RBD H17N10 (Influenza A virus (H17N10), UniProt H6QM79 1-73). In words: EMSA. Particulars: protein: recombinant; tags: N-His thrombin-cleaved; chain copies: 2; label: 5'-32P.
Series [2] deals with T1, NS1 RBD H7N1. In words: EMSA. Particulars: protein: recombinant; tags: N-His thrombin-cleaved (vector residues remain); chain copies: 2; label: 5'-32P.
Series [3] addresses T1, NS1 RBD H7N1. The series is described as follows: X-ray crystallography; 2.30 A; 2 M ammonium sulfate. Particulars: protein: recombinant; tags: N-His thrombin-cleaved (vector residues remain); chain copies: 2.

B1: ZKO (dsRNA)
RNA 1: AGACAGCAUUAUGCUGUCUUU
RNA 2: AGACAGCAUUAUGCUGUCUUU
Take B1: in the series with NS1 RBD H7N1 [1], the IC50 came out at 96 ± 3 nM.

B2: AWFC01 (dsRNA)
RNA 1: GGUAACUGUUACAGUUACC
RNA 2: GGUAACUGUUACAGUUACC
B2: the figures for the Kd with NS1 RBD H7N9, with NS1 RBD H17N10 and with NS1 RBD H7N1 [2] were 3.1 ± 0.1 nM, 1.5 ± 0.1 nM and 0.83 ± 0.03 nM, respectively. In addition, the IC50 in the series with NS1 RBD H7N1 [1] (label: 5'-32P) was determined as 1.7 ± 0.1 nM.

B3: ZKO* (dsRNA)
RNA 1: AGACAGCAUUAUGCUGUCU
RNA 2: AGACAGCAUUAUGCUGUCU
As for B3, in the series with NS1 RBD H7N1 [3], the binding result is “binds”.

B4: DM03-mot B (ssRNA)
RNA: UGAUUGAAG
For the molecule B4, the binding result with NS1 RBD H7N1 [2] is “no binding”.

B5: DM01-mot A (ssRNA)
RNA: AGCAAAAG
For the molecule B5, the binding result with NS1 RBD H7N1 [2] is listed as “no binding”.
